Laboratory results as given in patent US20240158511A1 (GENERAL HOSPITAL, published 2024).

B1: humanized N55D-substituted mAb107 (humanized IgG4κ mAb107) (antibody, V domains shown)
VH: QVQLVQSGAEVKKPGASVKVSCKPSGFNIKDIYMQWVRQAPGQRLEWIGRIDPADDKTKYDPKFQGRATITADTSASTAYLELSSLRSEDTAVYYCASEGHYGYDGYAMDYWGQGTTVTVSS
VL: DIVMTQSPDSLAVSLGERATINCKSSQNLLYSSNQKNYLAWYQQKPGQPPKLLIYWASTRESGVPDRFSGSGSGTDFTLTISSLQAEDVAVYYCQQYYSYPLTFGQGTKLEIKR
notes: The VH was joined to a human IgG4 constant region and the VL to a human kappa constant region; also called humAb107; humanized mAb107
B2: Humanized mutagenized mAb107 IgG4k heavy chain V5 (antibody, V domains shown)
VH: B1 VH
VL: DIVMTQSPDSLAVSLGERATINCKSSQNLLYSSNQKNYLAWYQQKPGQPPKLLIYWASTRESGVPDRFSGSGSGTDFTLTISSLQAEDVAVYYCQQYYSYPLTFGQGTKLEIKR
notes: The residue limits were counted on the printed translation; The heavy chain carries the N-to-D substitution in CDR2 and S228P in the IgG4 hinge; also called Humanized mutagenized anti-CD11b; humanized IgG4κ mAb107 containing Pro 228

Assays:
[1] = target: T1, A-domain of CD11b (UniProt P11215 139-337); test: BLI (Octet), A-domain of CD11b as ligand
T1 construct: domain: A-domain; Used as the ligand in BLI (Octet); also called CD11b A-domain; CD11bA domain
T1 sequence (P11215 139-337 limits assumed): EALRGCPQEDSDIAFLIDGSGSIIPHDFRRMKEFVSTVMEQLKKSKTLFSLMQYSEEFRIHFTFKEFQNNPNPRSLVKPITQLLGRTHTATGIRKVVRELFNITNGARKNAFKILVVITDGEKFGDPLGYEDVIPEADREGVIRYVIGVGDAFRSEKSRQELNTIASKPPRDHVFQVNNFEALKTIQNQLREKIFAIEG
Procedure: Production, purification, and evaluation: Expi293 cells (Thermo Fisher) were used to produce recombinant antibodies. Cells were grown on orbital shaker (125 rpm) in Expi293 Expression Medium (Thermo Fisher) at 37° C. in 5% CO2. Expi293 cells were transiently transfected with 1:1 heavy chain and light chain plasmids, using manufacturer's protocol. Culture supernatant was harvested after one week, and IgG was purified using Protein G agarose beads (Thermo Scientific). We routinely obtained 1-3 mg of purified IgG per 100 ml of cell culture. The protein sizes of the heavy and light chains and purity of the IgG were confirmed on SDSPAGE. Affinity of the humanized mAb107 vs. mouse mAb107 was measured using the A-domain of CD11b as ligand by Bio-layer interferometry (BLI) using the Octet Assay system.

[2] = target: T1, A-domain of CD11b; test: assay not given; presumably BLI on the CD11b A-domain as in Example 1; lower end of the printed range 5-9 nM

Binder	Kd [1] [nM]	Kd [2] [nM]
B1	5 to 9	–
B2	–	5 to 9
